B1: RCP-23: comparative polypeptide, SEQ ID NO: 28; vitronectin positions 1-55, 56-129 (protein)
chain: GPLGDQESCKGRCTEGFNVDKKCQCDELCSYYQSCCTDYTAECKPQVTRGDVFTMPEDEYTVYDDGEEKNNATVHEQVGGPSLTSDLQAQSKGNPEQTPVLKPEEEAPAPEVGASKPEGIDSRPETLHPGRPQP
modifications: Vitronectin-derived Recombinant Protein (RCP-23)
B2: RCP-25: comparative polypeptide, SEQ ID NO: 30; vitronectin positions 56-459 (protein)
chain: GPLGYTVYDDGEEKNNATVHEQVGGPSLTSDLQAQSKGNPEQTPVLKPEEEAPAPEVGASKPEGIDSRPETLHPGRPQPPAEEELCSGKPFDAFTDLKNGSLFAFRGQYCYELDEKAVRPGYPKLIRDVWGIEGPIDAAFTRINCQGKTYLFKGSQYWRFEDGVLDPDYPRNISDGFDGIPDNVDAALALPAHSYSGRERVYFFKGKQYWEYQFQHQPSQEECEGSSLSAVFEHFAMMQRDSWEDIFELLFWGRTSAGTRQPQFISRDWHGVPGQVDAAMAGRIYISGMAPRPSLAKKQRFRHRNRKGYRSQRGHSRGRNQNSRRPSRATWLSLFSSEESNLGANNYDDYRMDWLVPATCEPIQSVFFFSGDKYYRVNLRTRRVDTVDPPYPRSIAQYWLGCPAPGHL
modifications: Vitronectin-derived Recombinant Protein (RCP-25)
B3: Natural vitronectin: human vitronectin (extracted from human serum, BD Biosciences) (protein, listed as Homo sapiens)
chain: DQESCKGRCTEGFNVDKKCQCDELCSYYQSCCTDYTAECKPQVTRGDVFTMPEDEYTVYDDGEEKNNATVHEQVGGPSLTSDLQAQSKGNPEQTPVLKPEEEAPAPEVGASKPEGIDSRPETLHPGRPQPPAEEELCSGKPFDAFTDLKNGSLFAFRGQYCYELDEKAVRPGYPKLIRDVWGIEGPIDAAFTRINCQGKTYLFKGSQYWRFEDGVLDPDYPRNISDGFDGIPDNVDAALALPAHSYSGRERVYFFKGKQYWEYQFQHQPSQEECEGSSLSAVFEHFAMMQRDSWEDIFELLFWGRTSAGTRQPQFISRDWHGVPGQVDAAMAGRIYISGMAPRPSLAKKQRFRHRNRKGYRSQRGHSRGRNQNSRRPSRATWLSLFSSEESNLGANNYDDYRMDWLVPATCEPIQSVFFFSGDKYYRVNLRTRRVDTVDPPYPRSIAQYWLGCPAPGHL
modifications: glycosylated
B4: RCP-26: comparative polypeptide, SEQ ID NO: 31; vitronectin positions 269-459 (protein)
chain: GPLGPSQEECEGSSLSAVFEHFAMMQRDSWEDIFELLFWGRTSAGTRQPQFISRDWHGVPGQVDAAMAGRIYISGMAPRPSLAKKQRFRHRNRKGYRSQRGHSRGRNQNSRRPSRATWLSLFSSEESNLGANNYDDYRMDWLVPATCEPIQSVFFFSGDKYYRVNLRTRRVDTVDPPYPRSIAQYWLGCPAPGHL
modifications: Vitronectin-derived Recombinant Protein (RCP-26)

What was measured:
[1] = Evaluation of adsorbability with respect to cell culture surface (OPA fluorescence); assay type: physicochemical; conditions: FIG. 1; for adsorbability with respect to the plate: 0 to 200 pmol/cm^2 added, 2 hours at 37° C., washed twice with PBS
Procedure: Each of the polypeptides of RCP-1 to RCP-11 and RCP-21 to RCP-26 obtained as above was diluted with a predetermined buffer such that they could be added to wells at a predetermined final concentration of 0 pmol/cm^2 to 200 pmol/cm^2. Thereafter, each of the polypeptides was added in an amount of 64 μL to a plasma-treated 96-well plate made of polystyrene (Tissue Culture-Treated, Falcon). Each of the polypeptides was allowed to adsorb onto the plate by being incubated for 2 hours at 37° C., and then the wells were washed twice with PBS, thereby obtaining surfaces coated with each of the polypeptides of RCP-1 to RCP-11 and RCP-21 to RCP-26.
Among the surfaces coated with each of the polypeptides obtained as above, the surfaces coated with RCP-1 and RCP-21 to RCP-26 were applied with 64 μL of a borate buffer and 64 μL of 1 N NaOH, followed by incubation for 24 hours at 80° C. and 100% humidity. After the resultant was air-cooled, 75 μL of a borate buffer was added to each well, and 50 μL of a reaction solution obtained by mixing OPA (o-phthalaldehyde: Wako Pure Chemical Industries, Ltd./methanol solution (160 mg/ml)) with N-acetyl-L-cysteine (NAC: Wako Pure Chemical Industries, Ltd.)/borate buffer solution (2 mg/ml) at a ratio of 1:100 (mass ratio) was further added thereto. After incubation for 30 minutes at 40° C., the fluorescence intensity thereof was measured by using an Envision Multilabel Counter (PerkinElmer Inc.) (excitation 355 nm/fluorescence 486 nm). A calibration curve was separately prepared from each of the polypeptide solutions so as to calculate the amount of the polypeptide adsorbed. In FIG. 1, a black rhombus indicates RCP-1, a black square indicates RCP-21, a black triangle indicates RCP-22, a black circle indicates RCP-23, a white rhombus indicates RCP-24, a white square indicates RCP-25, and a white triangle indicates RCP-26.

human iPS cells ("Tic") = assay: Cell adhesiveness evaluation 1 (ALP activity of adhesive iPS cells); assay type: cell-based; conditions: 30,000 cells/well, 24 hours, n=3
Procedure: The cell adhesiveness of human iPS cells (“Tic”: Cell No. JCRB 1331: from National Institute of Biomedical Innovation. [567-0085, 7-6-8 Asagi Saito Ibaraki-City Osaka]) with respect to the aforementioned polypeptides was evaluated in the following manner.
As feeder cells for retaining the human iPS cells, EmbryoMax (registered trademark) (early mouse embryonic fibroblasts: resistant to hygromycin, treated with mitomycin C, derived from C57/BL6, third passage) (Millipore Corporation) was used. By using DMEM (Invitrogen) and a 10% (v/v) fetal bovine serum medium, the feeder cells were cultured for 24 hours and attached to a T25 flask (Corning Incorporated). As a medium for the human iPS cells, the one obtained by adding FGF-2 (Sigma-Aldrich Co, LLC.) to a medium composed as shown in Table 6 at a final concentration of 10 ng/ml was used.
By using the aforementioned medium, the human iPS cells were retained and cultured in a 5% (v/v, the same unit will be used hereinafter) CO2 incubator at 37° C. Except for the day after the seeding of the iPS cells, the medium was replaced every day. The subculture operation was performed by exfoliating the cells by using Dispase II (neutral protease Grade II, Roche) and separating the cells in an appropriate size by a pipetting operation.
The iPS cells cultured as described above were treated with TrypLE Select (Invitrogen) for 5 minutes at 37° C. and separated into a single cell. After being subjected to centrifugation for 2 minutes at 300 rpm, the cells were collected and suspended in TeSR2 (a medium not containing a heterogeneous animal-derived component and a serum component, STEMCELL Technologies.) containing Y-27362 ((R)-(+)-trans-N-(4-pyridyl)-4-(1-aminoethyl)-cyclohexane carboxamide.2HCl.H2O, an Rho binding kinase inhibitor, Wako Pure Chemical Industries, Ltd.) at a final concentration of 10 μM.
Each of RCP-1 to RCP-11, RCP-21, RCP-25, and RCP-26 as control, human vitronectin (extracted from human serum, BD Biosciences), and recombinant laminin (rLaminin-5: Oriental Yeast Co., ltd. and Human Recombinant Laminin-511: BIOLAMINA AB) was added to and suspended in a predetermined buffer (a dialysis buffer used in <GRAVY value and aggregation characteristics> described above for RCP-1 to RCP-11, and PBS for RCP-21, RCP-25, human vitronectin, and recombinant laminin) at the concentration shown in Table 7, thereby preparing samples 1 to 17. The samples were added to the respective wells of a 96-well plate and adsorbed onto the plate by being held for 2 hours at 37° C.
Into the respective wells of the 96-well plate treated with the peptides, iPS cells were seeded at a cell density of 30,000 cells/well. After the cells were cultured for 24 hours, the nonadhesive cells were washed off with PBS, and only the adhesive cells were immobilized by using 4% (v/v) paraformaldehyde (Wako Pure Chemical Industries, Ltd.). By using an Attophos (registered trademark) AP Fluorescent Substrate System (Promega Corporation), the ALP activity was calculated, and from the calibration curve, the number of undifferentiated iPS cells having the ALP activity was calculated. In Table 7, the cell adhesion rate is expressed as a ratio calculated by regarding the cell adhesion rate obtained from the sample 15 using natural vitronectin as being 100%. n=3.

iPS cells [2] = assay: Cell adhesiveness evaluation 3 (RCP-1 added amount); assay type: cell-based, human; conditions: added amount 130 pmol/cm^2; this surface = 100%; n=3
Procedure: The cell adhesiveness was evaluated in the same manner as in <Cell adhesiveness evaluation 1>, except that RCP-1 was used after the concentration thereof was adjusted to 125 pmol/cm^2 to 1,000 pmol/cm^2 by using PBS. In Table 10, the cell adhesion rate is expressed as a ratio calculated by regarding a cell adhesion rate with respect to the cell culture surface, onto which natural vitronectin is adsorbed at a concentration of 130 pmol/cm^2, as being 100%. n=3.

iPS cells [3] = assay: Evaluation of maintenance of undifferentiated state (reference examples); assay type: cell-based, human
Procedure: iPS cells collected in the same manner as in <Cell adhesiveness evaluation 1> were suspended in TeSR2. The iPS cells were seeded into 6-well plate (Tissue culture-treated, Falcon), onto which each of the samples 1, 2, 5, 6, and 7 used in <Cell adhesiveness evaluation 1> was adsorbed in the same manner as in <Cell adhesiveness evaluation 1>, and cultured in a CO2 incubator at 37° C. Except for the day after the seeding, the medium was replaced every day. In the same method as described above, the cells were subcultured every six days.
After being cultured for 1 month under the conditions described above, the cells were immobilized using 4% paraformaldehyde and treated with 1% Triton-X/PBS so as to enhance the membrane permeability. After the cells were subjected to a blocking treatment using an Image IT Signal Enhancer (Invitrogen), an anti-human NANOG antibody (AF 1997, R&D Systems, Inc.), an Alexa Fluor 555 binding rabbit anti-goat IgG antibody (Invitrogen), and DAPI (4′,6-diamidino-2-phenylindole, Dojindo Molecular Technologies, Inc.) were added thereto for labeling, and the cells were imaged using a fluorescence microscope.
FIGS. 3A and 4A show the iPS cells cultured on RCP-1; FIGS. 3B and 4B show the iPS cells cultured on RCP-11; FIGS. 3C and 4C show the iPS cells cultured on natural human vitronectin; FIGS. 3D and 4D show the iPS cells cultured on rLaminin-5; and FIGS. 3E and 4E show the iPS cells cultured on rLaminin-511. The scale bar in the images indicates […]. In FIGS. 3A to 3E, the images on the left side are full images of the colony, and the images on the right side are magnified images. In FIGS. 4A to 4E, the images on the left side are images of the cells stained with DAPI, and the images on the right side are images of the cells stained with an anti-NANOG antibody. The scale bar in FIGS. 3A to 4E indicates 200 μm.

[4] = added amount 200 pmol/cm^2, natural vitronectin (sample 15) = 100%

Molecule	amount adsorbed onto the plate as fraction of the amount of polypeptides containing SEQ ID NO: 2 [1]	adsorbability with respect to the plate [1]	Cell adhesion rate (%) (human iPS cells ("Tic"); [4])	other results
RCP-24: comparative polypeptide, SEQ ID NO: 29; vitronectin positions 1-55 (GPLGDQESCKGRCTEGFNVDKKCQCDELCSYYQSCCTDYTAECKPQVTRGDVFTMPEDE; Vitronectin-derived Recombinant Protein (RCP-24)) [reference compound]	about ¼	–	–	–
B1	about ¼	–	–	–
B2	–	excellent adsorbability	13.2 ± 3.4	–
B3	–	–	–	Cell adhesion rate (%) (human iPS cells ("Tic"); added amount 130 pmol/cm^2, this sample = 100%): 100 ± 5.5%; Cell adhesion rate (%) (iPS cells [2]): 100 ± 5.5%; form of iPS cell colony (iPS cells [3]; TeSR2, subcultured every six days, FIGS. 3A to 3E): form specific to undifferentiated cells; NANOG expression (iPS cells [3]; cultured for 1 month in TeSR2, anti-NANOG staining, FIGS. 4A to 4E): strongly expressed NANOG in the entirety of the colony
B4	–	excellent adsorbability	9.4 ± 2.9	–

— US10487307B2, “Culture method for pluripotent stem cells” (FUJIFILM CORPORATION, priority 2013, dated 2019)
